Measured values reported in paper PMC8085152 (Journal of molecular biology, 2021).
Each block holds one molecule with its values, some of them ahead of it.

How the values were obtained:
[1] = molecular target: α-synuclein (αS) monomers, full-length 1-140 (UniProt P37840); experiment: co-sedimentation
[2] = molecular target: TDP-43 PrLD sonicated fibrils (UniProt Q13148 267-414); experiment: ThT fluorescence seeding kinetics

- stoichiometry N (TDP-43 PrLD per αS) [1]: 1.2
Molecule: TDP-43 PrLD (residues 267-414) monomers, hexahistidine-TEV fusion construct (from UniProt Q13148 267-414) (domain or fragment)

- binding result [2]: binds
B1: TDP-43 PrLD (residues 267-414) monomers, hexahistidine-TEV fusion construct (domain or fragment, UniProt Q13148 267-414, looked up)
chain: NRQLERSGRFGGNPGGFGNQGGFGNSRGGGAGLGNNQGSNMGGGMNFGAFSINPAMMAAAQAALQSSWGMMGMLASQQNQSGPSGNNQNQGNMQREPNQAFGSGNNSYSGSNSGAAIGWGSASNAGSGSGFNGGFGSSMDSKSSGWGM
